The results in this text go back to the FLAb antibody collection (doi:10.7554/elife.23156).

The labels stand for the following.
B1: scFv; the commonest letter at each place (parent)
chain 1: EVKLDETGGGLVQPGRPMKLSCVASGFTFSDYWMNWVRQSPEKGLEWVAQIRNKPYNYETYYSDSVKGRFTISRDDSKSSVYLQMNNLRVEDMGIYYCTGSYYGMDYWGQGTSVTVS
chain 2: DVVMTQTPLSLPVSLGDQASISCRSSQSLVHSNGNTYLRWYLQKPGQSPKVLIYKVSNRFSGVPDRFSGSGSGTDFTLKISRVEAEDLGVYFCSQSTHVPWTFGGGTKLEIK

The data set “fluorescein” covers variants of B1. Briefly: Kd (Tite-Seq). Conditions: with fluorescein; format: scFv 4-4-20, heavy + light.
The variants in data set [1] derive from B1. Briefly: yeast surface expression (ratio to wild type); higher = more expressed. Conditions: format: scFv 4-4-20, heavy + light.

Where only a bound is given, the exact number is not on record here.

As to chain 1 S101I Y103P M105E, the dissociation constant (Kd) with fluorescein was ≥ 10 µM. For the same variant, the yeast surface expression in data set [1] turned out to be 0.462.
Consider chain 1 S101C G104N G109R, for which the Kd with fluorescein was ≥ 10 µM. Moreover, in data set [1], the yeast surface expression stood at 0.263.
The corresponding values for chain 1 S101H Y103N are ≥ 10 µM and 0.984.
The corresponding values for chain 1 S101H Y103L are ≥ 10 µM and 0.78.
For chain 1 S101H Y103Q, the dissociation constant (Kd) in the data set with fluorescein was ≥ 10 µM. Also, the yeast surface expression in data set [1] amounted to 0.871.
As for chain 1 S30Y Y32S W33T, the dissociation constant Kd in the data set with fluorescein was ≥ 10 µM. For the same variant, in data set [1], the yeast surface expression worked out at 0.934.
The corresponding values for chain 1 S101F G104Q are ≥ 10 µM and 0.241.
Take chain 1 S101F G104L: in the data set with fluorescein, the Kd is ≥ 10 µM. Moreover, the yeast surface expression in data set [1] was 0.778.
In the case of chain 1 S101F G104I, the Kd in the data set with fluorescein was ≥ 10 µM. Moreover, the yeast surface expression in data set [1] came out at 0.187.
The corresponding values for chain 1 S101G M105E D106R are ≥ 10 µM and 0.604.
The corresponding values for chain 1 S101D M105T are ≥ 10 µM and 0.799.
The corresponding values for chain 1 S101A Y103E are 0.00966 µM and 1.23.
With chain 1 S101K G104W M105V, in the data set with fluorescein, the Kd is ≥ 10 µM. The yeast surface expression in data set [1] is 0.205.
The corresponding values for chain 1 S101C G104C are ≥ 10 µM and 0.33.
In the case of chain 1 S101I W108E, in the data set with fluorescein, the equilibrium dissociation constant (Kd) was ≥ 10 µM. In addition, the yeast surface expression in data set [1] came to 0.21.
chain 1 S101D D106K: in the data set with fluorescein, the dissociation constant (Kd) is ≥ 10 µM. The yeast surface expression in data set [1] turned out to be 0.435.
The corresponding values for chain 1 S101D D106N are ≥ 10 µM and 0.813.
For chain 1 S101E Y102Q W108C, the Kd in the data set with fluorescein is ≥ 10 µM. In addition, the yeast surface expression in data set [1] is 0.541.
For the variant chain 1 S101E W108H, in the data set with fluorescein, the Kd was ≥ 10 µM. In addition, the yeast surface expression in data set [1] came to 0.374.
The corresponding values for chain 1 S101E W108G are ≥ 10 µM and 0.368.
In the case of chain 1 S101E W108K, in the data set with fluorescein, the Kd was ≥ 10 µM. Further, in data set [1], the yeast surface expression was 0.375.
For chain 1 S30Y W36N, the Kd in the data set with fluorescein is ≥ 10 µM. For the same variant, the yeast surface expression in data set [1] amounted to 0.436.
The corresponding values for chain 1 S101D Y102F are ≥ 10 µM and 0.93.
Regarding chain 1 S101D Y102P, the Kd with fluorescein is ≥ 10 µM. Moreover, the yeast surface expression in data set [1] is 0.719.
Regarding chain 1 S101C Y103V D106I, the Kd in the data set with fluorescein is ≥ 10 µM. In data set [1], the yeast surface expression came to 0.168.
The corresponding values for chain 1 S101H Y107R W108C are ≥ 10 µM and 0.22.
Take chain 1 S101A Y102P: the equilibrium dissociation constant (Kd) with fluorescein was ≥ 10 µM. In addition, in data set [1], the yeast surface expression was 0.793.
The corresponding values for chain 1 S101C M105I are ≥ 10 µM and 0.826.
In the case of chain 1 S101A Y107E W108G, the Kd with fluorescein is ≥ 10 µM. Moreover, in data set [1], the yeast surface expression amounted to 0.353.
For the variant chain 1 S101K Y103R, the Kd with fluorescein was ≥ 10 µM. For the same variant, the yeast surface expression in data set [1] worked out at 0.714.
Regarding chain 1 S101K Y103S, the dissociation constant (Kd) in the data set with fluorescein was ≥ 10 µM. Also, the yeast surface expression in data set [1] is 0.461.
The corresponding values for chain 1 S101K Y103T are ≥ 10 µM and 0.456.
The corresponding values for chain 1 S101C G109N are ≥ 10 µM and 0.251.
The corresponding values for chain 1 S101C G109A are ≥ 10 µM and 0.363.
As to chain 1 S101C G109D, in the data set with fluorescein, the dissociation constant (Kd) was ≥ 10 µM. Further, the yeast surface expression in data set [1] turned out to be 0.328.
The corresponding values for chain 1 S101C D106I G109A are ≥ 10 µM and 0.168.
The corresponding values for chain 1 S101H G109V are ≥ 10 µM and 0.231.
On to chain 1 S101F W108E, for which the Kd in the data set with fluorescein is ≥ 10 µM. For the same variant, the yeast surface expression in data set [1] was 0.216.
The corresponding values for chain 1 S101F W108K are ≥ 10 µM and 0.217.
Consider chain 1 S101F W108F, for which the Kd with fluorescein was ≥ 10 µM. The yeast surface expression in data set [1] was determined as 0.199.
The corresponding values for chain 1 S101G G104Y are ≥ 10 µM and 0.901.
The corresponding values for chain 1 S101I Y103T W108D are ≥ 10 µM and 0.293.
As for chain 1 S101D G104H D106A, in the data set with fluorescein, the Kd was ≥ 10 µM. In data set [1], the yeast surface expression stood at 0.353.
The corresponding values for chain 1 S101F W108S G109S are ≥ 10 µM and 0.242.
The corresponding values for chain 1 S101E G104K M105C are ≥ 10 µM and 0.346.
The corresponding values for chain 1 S101H are ≥ 10 µM and 0.737.
chain 1 S101G: the Kd with fluorescein was ≥ 10 µM. In addition, the yeast surface expression in data set [1] was 0.901.
The corresponding values for chain 1 S101A are 0.000724 µM and 0.836.
The corresponding values for chain 1 S101E are ≥ 10 µM and 0.838.
The corresponding values for chain 1 S101I are ≥ 10 µM and 0.521.
Take chain 1 S101C: the equilibrium dissociation constant (Kd) with fluorescein is ≥ 10 µM. The yeast surface expression in data set [1] turned out to be 0.832.
The corresponding values for chain 1 S101F are ≥ 10 µM and 0.596.
The corresponding values for chain 1 S101D are ≥ 10 µM and 0.888.
The corresponding values for chain 1 S101K are ≥ 10 µM and 0.463.
Regarding chain 1 S101I Y102T, in the data set with fluorescein, the Kd was ≥ 10 µM. Also, the yeast surface expression in data set [1] came out at 0.614.
As for chain 1 S101I Y102M, the dissociation constant (Kd) with fluorescein was ≥ 10 µM. The yeast surface expression in data set [1] amounted to 0.621.
The corresponding values for chain 1 S101I Y102L are ≥ 10 µM and 0.376.
The corresponding values for chain 1 S101I Y102W are ≥ 10 µM and 0.303.
